# Source: patent US20030096760A1 (GlaxoSmithKline, published 2003)
# [ ]: non-standard residue; d: D form.
# T1: DET1-DET2-spacer-ek-src SH2 (human src SH2 domain fusion protein) (human)
# T1 construct: In the assay it was captured on Protein-G Sepharose through MAB178.1; also called cloned human Src SH2 domain
# T1 chain: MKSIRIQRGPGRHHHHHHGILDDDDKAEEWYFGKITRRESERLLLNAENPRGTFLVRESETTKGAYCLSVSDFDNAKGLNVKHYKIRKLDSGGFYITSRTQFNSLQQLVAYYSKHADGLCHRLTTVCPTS
# B1: (S)-alpha-(acetylamino)-1,3-dihydro-3-hydroxy-1-oxo-5-isobenzofuranpropanamido-glutamate-glutamate-isoleucine-glutamate-amine (peptide)
# peptide: Ac-[(S)‑2‑amino‑3‑(1,3-dihydro-3-hydroxy-1-oxo-isobenzofuran-5-yl)propanoic acid]EEIE-NH2
# notes: Synthetic modified pentapeptide; also called Compound 1
# Target: T1, DET1-DET2-spacer-ek-src SH2 (human src …)
# Test: ELISA-based filter plate competition assay; SH2 fusion captured by MAB178.1, displacement of 0.1 uM biotinylated pY peptide (SEQ ID NO: 13)
binder,measurement,value
B1,IC50,0.25 µM
